Reference: patent US20210277067A1

Target: HCMV pentameric complex gH/gL/pUL128/pUL130/pUL131A (wild type Pentamer) (HCMV strain Merlin) (UniProt Q6SW67)
Experiment: method not stated

8I21 with HCDR3 Trp105 mutated to alanine (Fab)
fold decrease in binding affinity (against unmutated 8I21): > 150 fold
